One assay has as its system human IgM. As to the kind of experiment: IdeS cleavage assay of Ig classes: IgM. It counts as biochemical. The note with it: purified IdeS, 2 h at 37° C. As to the method: (§1) For standard IdeS activity assays, bacteria cultures were grown to OD620=0.4. Bacteria were pelleted by centrifugation and supernatants were sterile-filtered through a 0.22 μm membrane (Millipore) prior to use. For activity assays, […] of supernatant were mixed with 5 μl of IgG (10 mg/ml, Sigma) and the volume was adjusted with PBS to 100 μl. For screening of IdeS activity in different S. progenes strains, E64 was added to a final concentration of 40 μM. The mixtures were incubated at 37° C. for 30 min and samples were analyzed by 12% SDS-PAGE. For cleavage assays of different classes of Ig, purified IdeS (0.3 μg/ml) was incubated with 3 μg Ig for 2 h at 37° C., and analyzed by 12% SDS-PAGE analysis.

In the next assay the test system is human IgA. As to the kind of experiment: IdeS cleavage assay of Ig classes: IgA. The class given is biochemical. Conditions: purified IdeS, 2 h at 37° C. On the procedure:
as §1

A further assay concerns human IgD. Briefly: IdeS cleavage assay of Ig classes: IgD. It counts as biochemical. The note with it: purified IdeS, 2 h at 37° C. On the procedure:
as §1

The next assay deals with human IgE. Briefly: IdeS cleavage assay of Ig classes: IgE. It counts as biochemical. The note with it: purified IdeS, 2 h at 37° C. As to the method: as §1
For assay [1], the system named is different subclasses of IgG. As to the kind of experiment: IdeS activity against the subclasses of IgG. It counts as biochemical, human.
The subject of a further assay is IgG2. Briefly: IdeS activity against IgG2. It counts as biochemical, human.
A further assay has as its system whole human plasma. As to the kind of experiment: Incubation of human plasma with IdeS. It counts as biochemical.
In the next assay the test system is rabbit IgG. Briefly: IdeS species restrictions: rabbit IgG. It counts as biochemical.
The target in another assay is fibronectin (Homo sapiens, UniProt P02751). As to the kind of experiment: IdeS cleavage of other human proteins: fibronectin. It counts as biochemical.
Sequence of fibronectin (P02751 32-2477): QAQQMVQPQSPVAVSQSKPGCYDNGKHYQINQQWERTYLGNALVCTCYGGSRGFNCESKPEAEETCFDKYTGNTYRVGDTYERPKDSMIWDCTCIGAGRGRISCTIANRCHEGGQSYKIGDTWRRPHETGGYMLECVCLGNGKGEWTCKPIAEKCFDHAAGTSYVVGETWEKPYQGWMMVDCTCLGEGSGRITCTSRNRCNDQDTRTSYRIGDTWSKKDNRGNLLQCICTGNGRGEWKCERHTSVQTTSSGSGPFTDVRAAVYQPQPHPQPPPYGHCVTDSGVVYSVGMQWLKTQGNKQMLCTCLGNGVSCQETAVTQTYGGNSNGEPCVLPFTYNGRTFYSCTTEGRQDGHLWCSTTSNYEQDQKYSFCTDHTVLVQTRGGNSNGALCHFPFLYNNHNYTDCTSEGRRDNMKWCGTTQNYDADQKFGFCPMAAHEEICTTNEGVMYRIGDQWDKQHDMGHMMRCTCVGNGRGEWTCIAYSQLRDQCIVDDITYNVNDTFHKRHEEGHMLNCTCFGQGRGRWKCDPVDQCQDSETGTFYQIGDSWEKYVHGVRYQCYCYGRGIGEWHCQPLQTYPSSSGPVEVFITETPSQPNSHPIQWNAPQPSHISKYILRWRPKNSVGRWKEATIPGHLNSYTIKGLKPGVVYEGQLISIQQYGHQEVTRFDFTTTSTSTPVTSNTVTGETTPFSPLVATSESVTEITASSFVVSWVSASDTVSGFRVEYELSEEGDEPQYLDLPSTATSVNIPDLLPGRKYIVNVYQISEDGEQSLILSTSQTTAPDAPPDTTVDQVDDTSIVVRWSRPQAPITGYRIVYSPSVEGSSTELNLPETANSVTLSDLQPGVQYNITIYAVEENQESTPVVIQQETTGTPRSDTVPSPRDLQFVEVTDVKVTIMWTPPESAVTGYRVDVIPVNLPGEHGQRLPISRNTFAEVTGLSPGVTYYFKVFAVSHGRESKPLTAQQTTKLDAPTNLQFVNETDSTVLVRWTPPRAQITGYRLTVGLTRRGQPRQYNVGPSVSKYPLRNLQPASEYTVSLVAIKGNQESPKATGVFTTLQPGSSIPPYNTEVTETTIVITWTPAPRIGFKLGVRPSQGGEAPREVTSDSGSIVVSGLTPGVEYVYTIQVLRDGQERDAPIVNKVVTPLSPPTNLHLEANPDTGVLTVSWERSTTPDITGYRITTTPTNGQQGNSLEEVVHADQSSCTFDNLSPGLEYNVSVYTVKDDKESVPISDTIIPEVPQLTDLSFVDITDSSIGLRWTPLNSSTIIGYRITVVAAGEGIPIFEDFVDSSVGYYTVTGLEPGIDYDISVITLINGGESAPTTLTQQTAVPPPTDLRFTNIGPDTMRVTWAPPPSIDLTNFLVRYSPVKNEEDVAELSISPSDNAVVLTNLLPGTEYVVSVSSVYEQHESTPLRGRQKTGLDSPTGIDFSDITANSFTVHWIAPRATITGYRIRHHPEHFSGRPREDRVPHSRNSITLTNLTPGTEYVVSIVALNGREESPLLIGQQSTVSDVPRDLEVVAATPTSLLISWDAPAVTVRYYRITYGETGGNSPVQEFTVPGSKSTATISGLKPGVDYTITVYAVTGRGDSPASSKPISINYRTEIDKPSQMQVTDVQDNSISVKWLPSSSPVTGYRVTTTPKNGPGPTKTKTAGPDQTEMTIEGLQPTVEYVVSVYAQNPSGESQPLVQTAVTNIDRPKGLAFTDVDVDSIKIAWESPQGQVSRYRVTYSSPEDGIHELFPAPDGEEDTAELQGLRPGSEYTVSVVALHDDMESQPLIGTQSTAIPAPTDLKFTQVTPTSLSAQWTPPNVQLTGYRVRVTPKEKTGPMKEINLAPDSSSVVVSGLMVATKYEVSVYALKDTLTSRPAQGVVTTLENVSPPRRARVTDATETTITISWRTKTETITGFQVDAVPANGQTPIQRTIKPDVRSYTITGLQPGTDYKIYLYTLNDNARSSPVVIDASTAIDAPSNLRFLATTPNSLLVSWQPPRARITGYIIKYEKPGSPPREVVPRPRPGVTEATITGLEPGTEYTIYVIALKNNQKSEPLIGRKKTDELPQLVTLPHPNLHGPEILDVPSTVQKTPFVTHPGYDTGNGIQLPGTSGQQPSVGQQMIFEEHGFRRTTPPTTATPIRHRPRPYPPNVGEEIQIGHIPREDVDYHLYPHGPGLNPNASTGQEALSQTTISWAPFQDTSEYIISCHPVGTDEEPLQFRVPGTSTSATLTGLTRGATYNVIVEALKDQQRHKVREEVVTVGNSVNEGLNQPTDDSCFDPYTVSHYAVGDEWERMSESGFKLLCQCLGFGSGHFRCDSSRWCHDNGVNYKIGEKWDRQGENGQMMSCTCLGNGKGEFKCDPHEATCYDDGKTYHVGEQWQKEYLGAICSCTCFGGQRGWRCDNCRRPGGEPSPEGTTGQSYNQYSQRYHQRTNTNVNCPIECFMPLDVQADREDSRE
In the next assay the target is albumin (Homo sapiens, UniProt P02768). As to the kind of experiment: IdeS cleavage of other human proteins: albumin. It counts as biochemical.
Another assay has as its target transferrin (Homo sapiens, UniProt P02787). As to the kind of experiment: IdeS cleavage of other human proteins: transferrin. The class given is biochemical.
Another assay relates to laminin. As to the kind of experiment: IdeS cleavage of other human proteins: laminin. It counts as biochemical.
The target in a further assay is T1, H-kininogen (Homo sapiens, UniProt P01042).
T1 sequence (P01042 19-644): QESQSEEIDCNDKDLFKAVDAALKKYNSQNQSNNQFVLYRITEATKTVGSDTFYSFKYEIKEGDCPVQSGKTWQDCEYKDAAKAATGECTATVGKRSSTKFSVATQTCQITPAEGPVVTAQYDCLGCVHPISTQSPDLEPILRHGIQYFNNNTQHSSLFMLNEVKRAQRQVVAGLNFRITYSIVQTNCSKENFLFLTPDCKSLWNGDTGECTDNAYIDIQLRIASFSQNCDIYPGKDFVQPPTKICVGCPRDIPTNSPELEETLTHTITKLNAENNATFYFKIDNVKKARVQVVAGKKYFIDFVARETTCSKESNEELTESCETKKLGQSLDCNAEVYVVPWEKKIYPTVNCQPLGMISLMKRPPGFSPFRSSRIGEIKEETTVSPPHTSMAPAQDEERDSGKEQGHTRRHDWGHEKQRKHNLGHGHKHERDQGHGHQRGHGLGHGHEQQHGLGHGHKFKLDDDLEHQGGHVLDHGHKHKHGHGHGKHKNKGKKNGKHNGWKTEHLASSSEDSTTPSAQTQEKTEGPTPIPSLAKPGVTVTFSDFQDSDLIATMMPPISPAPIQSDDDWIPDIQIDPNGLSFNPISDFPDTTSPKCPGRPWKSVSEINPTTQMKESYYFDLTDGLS
As to the kind of experiment: IdeS cleavage of other human proteins: H-kininogen. It counts as biochemical.

The target of a further assay is aprotinin (Bos taurus, UniProt P00974). Briefly: IdeS cleavage of other human proteins: aprotinin. It counts as biochemical.
A further assay deals with T2, cystatin D (Homo sapiens, UniProt P28325).
T2 sequence (P28325 21-142): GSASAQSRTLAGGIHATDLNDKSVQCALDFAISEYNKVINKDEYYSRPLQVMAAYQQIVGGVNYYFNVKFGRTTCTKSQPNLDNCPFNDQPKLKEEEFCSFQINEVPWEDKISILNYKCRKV
Briefly: IdeS cleavage of other human proteins: cystatin D. It counts as biochemical.

The next assay concerns the target T3, cystatin C (Mus musculus, UniProt P21460).
T3 sequence (P21460 21-140): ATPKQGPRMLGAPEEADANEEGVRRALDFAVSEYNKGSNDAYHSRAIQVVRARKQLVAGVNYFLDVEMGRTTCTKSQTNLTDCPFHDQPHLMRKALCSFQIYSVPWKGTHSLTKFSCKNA
As to the kind of experiment: IdeS incubation with mouse cystatin C. It counts as biochemical.

For assay [2], the target named is T4, antimicrobial peptide LL-37 (Homo sapiens, UniProt P49913).
T4 construct: antimicrobial peptide LL-37
T4 sequence (P49913 134-170 limits assumed): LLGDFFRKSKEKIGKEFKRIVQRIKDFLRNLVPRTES
As to the kind of experiment: IdeS activity towards peptides: LL-37. It counts as biochemical.

Assay [3] has as its system synthetic peptide homologous to amino acids 234 to 241 of human IgG. As to the kind of experiment: IdeS activity towards peptides: IgG hinge peptide. The class given is biochemical.
In assay [4] the test system is IgG bound to AP1 bacteria. As to the kind of experiment: IdeS cleavage of IgG bound to S. pyogenes bacterial surface. It counts as cell-based, human. Conditions: AP1 bacteria after absorption of non-immune or immune plasma.

This is an account of results in patent US7666582B2, “IdeS, an IgG-degrading enzyme of Streptococcus pyogenes” (Hansa Medical Research AB, priority 2001, dated 2010).

Sequence of transferrin (P02787 20-698): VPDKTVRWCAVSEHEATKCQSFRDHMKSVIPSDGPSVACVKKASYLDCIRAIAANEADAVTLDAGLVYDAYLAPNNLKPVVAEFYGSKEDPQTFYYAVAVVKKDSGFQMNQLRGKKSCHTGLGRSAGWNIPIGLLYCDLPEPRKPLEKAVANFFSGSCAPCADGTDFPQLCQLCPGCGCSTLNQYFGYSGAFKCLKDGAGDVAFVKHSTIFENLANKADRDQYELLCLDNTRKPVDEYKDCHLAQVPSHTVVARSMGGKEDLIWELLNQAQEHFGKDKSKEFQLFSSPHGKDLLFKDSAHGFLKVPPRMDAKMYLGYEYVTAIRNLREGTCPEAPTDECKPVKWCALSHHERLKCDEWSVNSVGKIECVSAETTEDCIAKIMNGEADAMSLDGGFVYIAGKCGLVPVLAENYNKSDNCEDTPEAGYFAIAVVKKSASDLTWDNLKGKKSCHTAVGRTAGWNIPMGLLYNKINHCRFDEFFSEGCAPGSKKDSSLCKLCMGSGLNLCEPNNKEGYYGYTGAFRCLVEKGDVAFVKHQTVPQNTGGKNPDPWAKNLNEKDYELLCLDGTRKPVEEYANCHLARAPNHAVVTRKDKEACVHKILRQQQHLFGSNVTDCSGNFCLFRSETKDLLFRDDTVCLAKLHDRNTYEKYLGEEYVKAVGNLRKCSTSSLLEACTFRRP

B1: IdeS: new extracellular cysteine protease produced by S. pyogenes, highly specific for IgG; SEQ ID NO: 1 (protein)
chain: DSFSANQEIRYSEVTPYHVTSVWTKGVTPPANFTQGEDVFHAPYVANQGWYDITKTFNGKDDLLCGAATAGNMLHWWFDQNKDQIKRYLEEHPEKQKINFNGEQMFDVKEAIDTKNHQLDSKLFEYFKEKAFPYLSTKHLGVFPDHVIDMFINGYRLSLTNHGPTPVKEGSKDPRGGIFDAVFTRGDQSKLLTSRHDFKEKNLKEISDLIKKELTEGKALGLSHTYANVRINHVINLWGADFDSNGNLKAIYVTDSDSNASIGMKKYFVGVNSAGKVAISAKEIKEDNIGAQVLGLFTLSTGQDSWNQTN
modifications: S. Pyogenes
Take B1: the “degradation of human IgM” value with human IgM was “only IgG was degraded”. Also, in the assay on human IgA, the “degradation of human IgA” value was “only IgG was degraded”. In addition, the “degradation of human IgD” value in the assay on human IgD is listed as “only IgG was degraded”. The “degradation of human IgE” value with human IgE is reported as “only IgG was degraded”. Moreover, in assay [1], the “digestion of the different subclasses of IgG” value was “all were susceptible for IdeS digestion”. In addition, the “digestion of IgG2 compared to the other subclasses” value with IgG2 is “less efficiently digested”. The “degradation products in human plasma” value in the assay on whole human plasma (purified IdeS) is “only the 31 kDa IgG-derived band and no additional degradation products could be identified”. Further, in the assay with whole human plasma (whole human plasma, further studies), the cleavage products entry is reported as “No cleavage products could be detected”. The “cleavage of rabbit IgG” value in the assay on rabbit IgG is reported as “cleave”. Moreover, the “cleavage products, fibronectin” value with fibronectin is given as “No cleavage products could be detected”. Moreover, in the assay with albumin, the “cleavage products, albumin” value was “No cleavage products could be detected”. The “cleavage products, transferrin” value with transferrin is recorded as “No cleavage products could be detected”. In addition, the “cleavage products, laminin” value in the assay on laminin is listed as “No cleavage products could be detected”. Moreover, the “cleavage products, H-kininogen” value with H-kininogen is recorded as “No cleavage products could be detected”. Also, the “cleavage products, aprotinin” value with aprotinin is “No cleavage products could be detected”. In addition, the “cleavage products, cystatin D” value with cystatin D was “No cleavage products could be detected”. Besides, the “cleavage products, cystatin C from mouse” value with cystatin C is listed as “No cleavage products could be observed”. Besides, the “degradation of LL-37” value in [2] is “did not reveal any degradation”. For the same molecule, in assay [3], the “degradation of synthetic peptide (amino acids 234 to 241 of human IgG)” value is reported as “did not reveal any degradation”. For the same molecule, in assay [4], the “cleavage of IgG bound to the bacterial surface (31 kDa band)” value is “in both cases IgG was cleaved”.
